We go through 4 molecules from patent publication US20090304651A1 (published 2009).

Test [1] deals with T1, recombinant human IGF-II (Insulin-like Growth Factor II) (human, UniProt P01344 25-91, biotinylated (Biotinyl-IGF-II, GroPep) where immobilised in SPR, site not stated; not biotinylated in ITC and as SPR analyte).
T1 construct: also called IGF2; IGF-2
In words: SPR, IGF-II immobilised, steady state. As for the experimental part:
Kinetic analysis by Surface Plasmon Resonance (SPR) was conducted on a BIAcore 3000 biosensor (BIAcore, Uppsala, Sweden) at 25° C. in HBS-EP (10 mM HEPES, pH 7.4, 150 mM NaCl, 3 mM EDTA, 0.005% surfactant P20) at a flow rate of 40 μl/min. […] Kinetic experiments consisted of a two minute injection of analyte followed by a 100 s dissociation phase in running buffer, after which the binding surface was regenerated with a 2 minute injection of 2 M MgCl₂. A blank flow cell was used for in-line reference subtraction of changes due to differences in refractive index of running buffer versus sample and a buffer-only injection was used to subtract instrument noise and drift. Injections were performed in duplicate for each concentration and in a randomised order. Kinetic parameters were determined by global fitting of sensorgrams to a two-state (conformational change) binding model using BIAevaluation software version 4.0.1. In all cases the minor component made an insignificant contribution to the overall affinity and as such only the kinetic parameters of the major binding component were used. For each interaction the dissociation affinity constant (KD) was also calculated by fitting of the response of each concentration at equilibrium to a steady-state affinity model using BIAevaluation. […]
(Surface plasmon resonance follows binding to a sensor surface in real time, without labels.)

For test [2], the target named is T1, recombinant human IGF-II (Insulin-like …). In words: SPR, IGF-II immobilised, kinetic fit. The protocol:
Kinetic analysis by Surface Plasmon Resonance (SPR) was conducted on a BIAcore 3000 biosensor (BIAcore, Uppsala, Sweden) at 25° C. in HBS-EP (10 mM HEPES, pH 7.4, 150 mM NaCl, 3 mM EDTA, 0.005% surfactant P20) at a flow rate of 40 μl/min. […] Kinetic experiments consisted of a two minute injection of analyte followed by a 100 s dissociation phase in running buffer, after which the binding surface was regenerated with a 2 minute injection of 2 M MgCl₂. A blank flow cell was used for in-line reference subtraction of changes due to differences in refractive index of running buffer versus sample and a buffer-only injection was used to subtract instrument noise and drift. Injections were performed in duplicate for each concentration and in a randomised order. Kinetic parameters were determined by global fitting of sensorgrams to a two-state (conformational change) binding model using BIAevaluation software version 4.0.1. In all cases the minor component made an insignificant contribution to the overall affinity and as such only the kinetic parameters of the major binding component were used. For each interaction the dissociation affinity constant (KD) was also calculated by fitting of the response of each concentration at equilibrium to a steady-state affinity model using BIAevaluation. In order to investigate the influence of ionic strength, kinetic experiments were conducted in HBS-EP running buffers containing the desired NaCl concentration. In each case, analyte samples were made up in the appropriate running buffer prior to injection.

For test [3] the target is unchanged. The experiment in a line: SPR, IGF-II immobilised, bivalent analyte model, ka1. The protocol:
(§1) Kinetic experiments consisted of a two minute injection of analyte followed by a 100 s dissociation phase in running buffer, after which the binding surface was regenerated with a 2 minute injection of 2 M MgCl₂. A blank flow cell was used for in-line reference subtraction of changes due to differences in refractive index of running buffer versus sample and a buffer-only injection was used to subtract instrument noise and drift. Injections were performed in duplicate for each concentration and in a randomised order. Kinetic parameters were determined by global fitting of sensorgrams to a two-state (conformational change) binding model using BIAevaluation software version 4.0.1. In all cases the minor component made an insignificant contribution to the overall affinity and as such only the kinetic parameters of the major binding component were used. For each interaction the dissociation affinity constant (KD) was also calculated by fitting of the response of each concentration at equilibrium to a steady-state affinity model using BIAevaluation. […]
(§2) The affinity of versions of Fc-tagged domain 11 fusion proteins, and domain 11 constructs, for IGF-II were compared using surface plasmon resonance (BIAcore 3000). […] The Fc-tagged domain 11 kinetic data performed in triplicate generated sensorgrams that were analyzed using a bivalent analyte model.

Test [4] has as its target T2, recombinant human IGF-I (Insulin-like Growth Factor I) (human, UniProt P05019 49-118, biotinylated (Biotinyl-IGF-I, GroPep), site not stated).
T2 construct: also called IGF1; Biotinyl-IGF-I
In words: SPR, biotinylated IGF-I immobilised. As for the experimental part:
(§3) Kinetic experiments consisted of a two minute injection of analyte followed by a 100 s dissociation phase in running buffer, after which the binding surface was regenerated with a 2 minute injection of 2 M MgCl₂. A blank flow cell was used for in-line reference subtraction of changes due to differences in refractive index of running buffer versus sample and a buffer-only injection was used to subtract instrument noise and drift. Injections were performed in duplicate for each concentration and in a randomised order. Kinetic parameters were determined by global fitting of sensorgrams to a two-state (conformational change) binding model using BIAevaluation software version 4.0.1. In all cases the minor component made an insignificant contribution to the overall affinity and as such only the kinetic parameters of the major binding component were used. For each interaction the dissociation affinity constant (KD) was also calculated by fitting of the response of each concentration at equilibrium to a steady-state affinity model using BIAevaluation. In order to investigate the influence of ionic strength, kinetic experiments were conducted in HBS-EP running buffers containing the desired NaCl concentration. In each case, analyte samples were made up in the appropriate running buffer prior to injection.
(§4) The affinity of versions of Fc-tagged domain 11 fusion proteins, and domain 11 constructs, for IGF-II were compared using surface plasmon resonance (BIAcore 3000). Attempts were made to immobilize Fc-tagged domain 11 proteins upon a sensor chip surface (CM5 and CM5-proteinA) but we encountered similar problems as described above with immobilised monomeric domain 11. Instead, immobilisation of biotinylated IGF-I and IGF-II on separate flow cells of a streptavidin coated sensor chip (BIAcore) generated reproducible sensorgram profiles when Fc-tagged and untagged domain 11 proteins were passed over the surface as analytes. The Fc-tagged domain 11 kinetic data performed in triplicate generated sensorgrams that were analyzed using a bivalent analyte model.

Test [5] concerns the target T1, recombinant human IGF-II (Insulin-like …). The experiment in a line: SPR, IGF-II immobilised, bivalent analyte model. As for the experimental part: as §1, §2
Test [6] shares this target. The experiment in a line: SPR, IGF-II immobilised, bivalent analyte model, kd1. The protocol: as §1, §2
The target is the same in test [7]. In words: SPR, IGF-II immobilised. As for the experimental part:
as §3, §4

Test [8] shares this target. In words: SPR, biotinylated IGF-II immobilised. As for the experimental part:
as §1, §2

Changes are numbered by the printed parent chain. Names and notes keep the numbering of the source.

T2 sequence (P05019 49-118 limits assumed): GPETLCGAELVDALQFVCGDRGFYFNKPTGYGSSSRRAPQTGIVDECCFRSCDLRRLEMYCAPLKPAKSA
T1 sequence (P01344 25-91 limits assumed): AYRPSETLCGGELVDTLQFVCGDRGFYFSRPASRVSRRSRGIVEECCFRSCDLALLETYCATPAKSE

B1: IGF2R domain 11 expressed in E. coli (pET-15), refolded and purified (receptor)
chain: NEHDDCQVTNPSTGHLFDLSSLSGRAGFTAAYSEKGLVYMSICGENENCPPGVGACFGQTRISVGKANKRLRYVDQVLQLVYKDGSPCPSKSGLSYKSVISFVCRPEAGPTNRPMLISLDKQTCTLFFSWHTPLACEQAT
notes: also called purified 11 from E. coli; native domain 11 protein
The koff is the first-order rate constant of dissociation. For orientation: kon means the rate constant with which the complex forms. Turning to B1, in test [1], the Kd was determined as 114 nM. For the same molecule, in test [2], the Kd came to 114 nM, the dissociation rate constant (koff) came out at 0.063 s⁻¹ and the kon came out at 553000 M⁻¹ s⁻¹.

B2: Fc-tagged wild-type IGF2R domain 11 (11-Fc), human IgG1 Fc at the C-terminus, homodimer from Drosophila D.Mel-2 cells (Fc fusion)
chain: B1 chain
modifications: N-glycosylated with two 982.9 Da molecules of Man3GlcNAc2
notes: also called 11^Wild type-Fc; 11^Wild type -Fc; not shown: human IgG1 Fc domain, amplified from IMAGE clone 4851063
As for B2, the kon in test [3] was 1.36e+06 M⁻¹ s⁻¹. For the same molecule, the binding result in test [4] is on record as “no binding”. The Kd in test [5] was found to be 3.26 nM. In addition, in test [6], the koff was found to be 0.00445 s⁻¹.

B3: Fc-tagged enhanced mutant IGF2R domain 11 (11^E1544K-Fc), human IgG1 Fc at the C-terminus, homodimer from Drosophila D.Mel-2 cells (Fc fusion)
chain: B1 chain with E34K
modifications: N-glycosylated with two 982.9 Da molecules of Man3GlcNAc2
notes: not shown: human IgG1 Fc domain, amplified from IMAGE clone 4851063
For the molecule B3, the kon in test [3] came to 2.23e+06 M⁻¹ s⁻¹. In addition, in test [7], the “Ru response amplitude relative to 11-Fc at equal concentrations” value is roughly 2 fold and the “molar affinity relative to 11-Fc” value was roughly 2 fold. In addition, in test [4], the binding result was “no binding”. For the same molecule, in test [5], the Kd stood at 1.79 nM. Moreover, the koff in test [6] was determined as 0.00401 s⁻¹.

B4: Fc-tagged null mutant IGF2R domain 11 (11^I1572A-Fc), human IgG1 Fc at the C-terminus, homodimer from Drosophila D.Mel-2 cells (Fc fusion)
chain: B1 chain with I62A
modifications: N-glycosylated with two 982.9 Da molecules of Man3GlcNAc2
notes: as for B3
As to B4, the binding result in test [8] and in test [4] was “no binding” throughout.
